Test results reported in patent publication US20200131274A1 (CRESCENDO BIOLOGICS, published 2020).
Positions count from the first letter of the chain named. Names and notes keep the numbering of the source.

B1: single VH domain antibody 2.18 (VHH)
VHH: EVQLVESGGGVVQPGRSLRLSCAASGFSFSGYGQHWVRQAPGKGLEWVAYISYDASNKYYADNVKGRFTISRDNSKNTLYLQMNSLRAEDTAVYYCAKDPAWGLRLGESSSYDFDIWGQGTMVTVSS
notes: Human single VH domain antibody (Humabody); C-terminal His tag, residues not tied
B2: single VH domain antibody 2.14 (VHH)
VHH: B1 VHH with Q34V
notes: as for B1
B3: single VH domain antibody 1.10 (VHH)
VHH: EVQLLESGGGLVQPGGSLRLSCAASGFSFSSYALSWVRQAPGKGLEWVSSIGENNATTDYADFVKGRFTISRDNSKNTLYLQMNSLRVEDTAVYYCVKDGVHWGQGTLVTVSS
notes: Human single VH domain antibody (Humabody)
B4: single VH domain antibody 1.11 (VHH)
VHH: B3 VHH with A56D, F63N
notes: as for B3
B5: single VH domain antibody 1.16 (VHH)
VHH: B3 VHH with A56H, F63T
notes: as for B3
B6: single VH domain antibody 1.13 (VHH)
VHH: B3 VHH with A56H, D62A, F63D
notes: as for B3
B7: single VH domain antibody 1.14 (VHH)
VHH: B3 VHH with F63V
notes: as for B3
B8: single VH domain antibody 2.12 (VHH)
VHH: B1 VHH with Q34M, A55K, N63K
notes: as for B1
B9: single VH domain antibody 2.13 (VHH)
VHH: B1 VHH with Q34L
notes: as for B1
B10: HiPEG B-1-A-His6 val-cit-PAB-MMAE (bispecific antibody)
chain: EVQLLESGGGLVQPGGSLRLSCAASGFSFSSYAMSWVRQAPGKGLEWVSSIGENDGTTDYADSVKGRFTISRDNSKSMLYLQMNSLRVEDTAVYYCVKDGVHWGQGTLVTVSSGGGGSGGGGSEVQLVESGGGVVQPGRSLRLSCAASGFSFSGYGMHWVRQAPGKGLEWVAYISYDGSNKYYADSVKGRFTISRDNSKNTLYLQMNSLRAEDTAVYYCAKDPAWGLRLGESSSYDFDIWGQGTMVTVSS
modifications: HiPEG val-cit-PAB-MMAE attached via the C-terminal His6-tag, DAR 1
B11: HiPEG A-His6 val-cit-PAB-MMAE (VHH)
VHH: B1 VHH with Q34M, A55G, N63S
modifications: HiPEG val-cit-PAB-MMAE attached via the C-terminal His6-tag, DAR 1
B12: HiPEG B-His6 val-cit-PAB-MMAE (VHH)
VHH: B3 VHH with L34M, N55D, A56G, F63S, N77S, T78M
modifications: HiPEG val-cit-PAB-MMAE attached via the C-terminal His6-tag, DAR 0.9
B13: HiPEG B-2-A-His6 val-cit-PAB-MMAE (bispecific antibody)
chain: EVQLLESGGGLVQPGGSLRLSCAASGFSFSSYAMSWVRQAPGKGLEWVSSIGENDGTTDYADSVKGRFTISRDNSKSMLYLQMNSLRVEDTAVYYCVKDGVHWGQGTLVTVSSGGGGSGGGGSGGGGSGGGGSGGGGSGGGGSEVQLVESGGGVVQPGRSLRLSCAASGFSFSGYGMHWVRQAPGKGLEWVAYISYDGSNKYYADSVKGRFTISRDNSKNTLYLQMNSLRAEDTAVYYCAKDPAWGLRLGESSSYDFDIWGQGTMVTVSS
modifications: HiPEG val-cit-PAB-MMAE attached via the C-terminal His6-tag, DAR 1
B14: HiPEG D-His6 val-cit-PAB-MMAE (VHH)
VHH: EVQLLESGGGLVQPGGSLRLSCAASGFRISDEDMGWVRQAPGKGLEWVSSIYGPSGSTYYADSVKGRFTISRDNSKNTLYLQMNSLRAEDTAVYYCASALEPLSEPLGFWGQGTLVTVSS
modifications: HiPEG val-cit-PAB-MMAE attached via the C-terminal His6-tag
B15: 1.18-6GS-2.22 (bispecific antibody)
chain: B13 chain with M34L, D55N, G56A, D62A, S77N, M78T, M177T, D205A, S206P, P243A
notes: linker (G4S)6
B16: 1.16-6GS-2.22 (bispecific antibody)
chain: B13 chain with M34L, D55N, G56H, S63T, S77N, M78T, M177T, D205A, S206P, P243A
notes: linker (G4S)6
B17: 1.11-6GS-2.22 (bispecific antibody)
chain: B13 chain with M34L, D55N, G56D, S63N, S77N, M78T, M177T, D205A, S206P, P243A
notes: linker (G4S)6; also called 1.11-2.22; 1.11-6GS-2.22His
B18: 1.18-6GS-2.1 (bispecific antibody)
chain: B13 chain with M34L, D55N, G56A, D62A, S77N, M78T
notes: linker (G4S)6
B19: 1.18-6GS-2.17 (bispecific antibody)
chain: B13 chain with M34L, D55N, G56A, D62A, S77N, M78T, G198A, S206N
notes: linker (G4S)6

These binders were tested against T1, human prostate specific membrane antigen (PSMA), full-length, on cells (human, UniProt Q04609 1-750) (assay: FMAT direct cell binding, CHO human PSMA cells).
T1 construct: also called huPSMA; human PSMA
T1 sequence (Q04609 whole entry): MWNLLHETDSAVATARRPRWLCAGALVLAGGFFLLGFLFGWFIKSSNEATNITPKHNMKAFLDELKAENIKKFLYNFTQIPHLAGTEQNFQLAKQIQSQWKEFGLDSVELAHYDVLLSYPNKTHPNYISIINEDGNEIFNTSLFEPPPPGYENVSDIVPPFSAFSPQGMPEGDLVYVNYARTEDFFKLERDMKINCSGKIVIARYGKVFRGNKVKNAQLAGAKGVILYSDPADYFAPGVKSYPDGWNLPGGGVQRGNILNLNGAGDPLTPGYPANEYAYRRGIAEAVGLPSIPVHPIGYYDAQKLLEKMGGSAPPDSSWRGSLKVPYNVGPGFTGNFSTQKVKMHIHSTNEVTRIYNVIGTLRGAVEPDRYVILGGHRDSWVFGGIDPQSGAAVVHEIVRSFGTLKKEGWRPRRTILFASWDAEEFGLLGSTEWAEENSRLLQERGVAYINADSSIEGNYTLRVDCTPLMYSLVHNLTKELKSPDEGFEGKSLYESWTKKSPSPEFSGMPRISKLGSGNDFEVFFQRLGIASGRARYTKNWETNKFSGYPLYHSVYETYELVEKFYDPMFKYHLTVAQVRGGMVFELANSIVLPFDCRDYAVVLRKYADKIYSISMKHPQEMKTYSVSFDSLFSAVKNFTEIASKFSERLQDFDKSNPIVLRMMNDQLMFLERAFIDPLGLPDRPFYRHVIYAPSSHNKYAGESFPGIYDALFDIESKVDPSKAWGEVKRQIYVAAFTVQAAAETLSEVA

Binder | EC50 [nM]
B1 | 0.104
B2 | 0.11
B3 | 0.0718
B4 | 0.0863
B5 | 0.068
B6 | 0.0513
B7 | 0.0588

Each binder was assayed against T1, human prostate specific membrane … (assay: FMAT cell binding, huPSMA CHO 1A10 cells, after 7 days in human serum at 37 C).

Binder | EC50 [nM]
B4 | 0.278
B5 | 0.236

The binders below were run against T2, recombinant human PSMA (R&D, cat. no. 4234-ZN) (human, UniProt Q04609 44-750) (assay: Octet RED384 BLI, PSMA on sensor, VH series from 0.375 ug/ml).
T2 construct: Bought protein; also called rhPSMA; Recombinant PMSA
T2 sequence (Q04609 44-750 limits assumed): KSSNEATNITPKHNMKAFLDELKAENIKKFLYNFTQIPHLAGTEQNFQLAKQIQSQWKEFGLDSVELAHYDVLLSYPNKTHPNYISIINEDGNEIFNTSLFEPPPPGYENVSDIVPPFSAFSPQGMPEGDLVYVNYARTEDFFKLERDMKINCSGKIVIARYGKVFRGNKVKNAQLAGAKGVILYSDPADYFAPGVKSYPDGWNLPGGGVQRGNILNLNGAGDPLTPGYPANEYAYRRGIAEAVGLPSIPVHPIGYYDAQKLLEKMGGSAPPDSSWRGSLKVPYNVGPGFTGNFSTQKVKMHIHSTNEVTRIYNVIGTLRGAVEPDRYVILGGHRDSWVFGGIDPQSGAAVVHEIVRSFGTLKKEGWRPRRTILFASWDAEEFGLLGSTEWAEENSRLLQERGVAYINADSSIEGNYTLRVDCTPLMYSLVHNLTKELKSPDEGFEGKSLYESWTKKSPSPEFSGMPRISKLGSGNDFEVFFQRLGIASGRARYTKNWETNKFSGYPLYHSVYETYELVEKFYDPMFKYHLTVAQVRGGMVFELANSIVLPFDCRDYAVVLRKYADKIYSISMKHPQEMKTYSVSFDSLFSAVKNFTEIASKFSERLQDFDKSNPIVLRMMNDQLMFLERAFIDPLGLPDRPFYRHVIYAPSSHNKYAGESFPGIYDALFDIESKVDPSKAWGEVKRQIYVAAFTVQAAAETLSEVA

Binder | Kd [nM] | koff [s⁻¹]
B8 | 1.56 | 0.00157
B9 | 0.99 | 0.000743

Each binder was assayed against T1, human prostate specific membrane … (assay: cell-based or functional assay).

Binder | pHrodo Green internalization assay, human PSMA Average EC50 (M)
B8 | 5.3e-10
B9 | 5.8e-10
B3 | 6.4e-10
B4 | 3.7e-10
B5 | 4.8e-10
B7 | 4.4e-10

Molecular target: T1, human prostate specific membrane …
Assay: cell-based or functional assay
Remark: another data set of the same source

Binder | IC50 (nM), cytotoxicity on DU145 PSMA cells, 72 h [nM] | IC50 (toxin) nM, DU145 PSMA cells, 72 h [nM]
B10 | 0.1 | 0.1
B11 | 0.55 | 0.55
B12 | 4.1 | 3.69

Each binder was assayed against T3, cynomolgus PSMA, full-length, on CHO cells (cynomolgus, UniProt A0A2K5VNZ0 1-750) (assay: FMAT direct cell binding, CHO cyno PSMA cells).
T3 construct: whole, on cells; also called cynoPSMA; cyno PSMA

Binder | EC50 [nM]
B1 | 0.337
B2 | 0.427
B3 | 0.152
B4 | 0.217
B5 | 0.146
B6 | 0.115
B7 | 0.145

Molecular target: T2, recombinant human PSMA (R&D, cat. no. …)
Assay: Octet RED384 BLI, PSMA on sensor, VH series from 0.375 ug/ml
Remark: another data set of the same source

Binder | Kd [nM] | koff [s⁻¹]
B3 | 0.67 | 0.000418
B4 | 0.8 | 0.000495
B5 | 0.44 | 0.000365
B7 | 0.46 | 0.000335

Molecular target: T1, human prostate specific membrane …
Assay: cell-based or functional assay
Remark: another data set of the same source

Binder | IC50 Toxin (nM), DU145 PSMA cells, 48 h [nM] | Mean IC50, cytotoxicity on DU145 PSMA cells, 48 h [nM] | Mean Max % Cell kill, DU145 PSMA cells, 48 h [%]
B10 | 0.13 | 0.13 | 79
B13 | 0.15 | 0.15 | 79
B14 |  | > 300 | 
B11 | 1.16 | 1.2 | 74
B12 | 2.43 | 2.7 | 73

The binders below were run against T1, human prostate specific membrane … (assay: FMAT cell binding, huPSMA CHO 1A10 cells, after 0 days in human serum at 37 C).

Binder | EC50 [nM]
B4 | 0.234
B5 | 0.165

What follows are binders tested against T1, human prostate specific membrane … (assay: FMAT cell binding, huPSMA CHO 1A10 cells, after 1 day in human serum at 37 C).

Binder | EC50 [nM]
B4 | 0.208
B5 | 0.243

Molecular target: T1, human prostate specific membrane …
Assay: cell-based or functional assay
Remark: another data set of the same source

Binder | IC50 (nM), PSMA-DU145 cytotoxicity assay (72 h) [nM] | IC50 (toxin) (nM), PSMA-DU145 cytotoxicity assay (72 h) [nM]
B13 | 0.27 | 0.27
B14 | > 100 | > 100

Each binder was assayed against T3, cynomolgus PSMA, full-length, on CHO … (assay: cell-based or functional assay).

Binder | His-ZAP cell killing, cyno PSMA Average EC50 [nM] | His-ZAP cell killing, cyno PSMA EC50 [nM]
B15 | 0.014 | 
B16 | 0.011 | 
B17 | 0.0095 | 
B18 | 0.0058 | 
B19 | 0.0056 | 
B8 |  | 0.091
B9 |  | 0.08
B3 |  | 1.3
B4 |  | 0.41
B5 |  | 0.42
B7 |  | 0.79

Molecular target: T1, human prostate specific membrane …
Assay: cell-based or functional assay
Remark: another data set of the same source

Binder | His-ZAP cell killing, human PSMA Average EC50 [nM]
B15 | 0.015
B16 | 0.02
B17 | 0.01
B18 | 0.0057
B19 | 0.012
B8 | 0.016
B9 | 0.027
B3 | 0.021
B4 | 0.014
B5 | 0.017
B7 | 0.017

What follows are binders tested against T1, human prostate specific membrane … (assay: FMAT direct cell binding, DU145 PSMA cells).

Binder | EC50 [nM]
B1 | 0.25
B2 | 0.202
B3 | 0.067
B4 | 0.076
B5 | 0.0594
B6 | 0.0456
B7 | 0.052

The binders below were run against T1, human prostate specific membrane … (assay: FMAT direct cell binding, LNCap cells).

Binder | EC50 [nM]
B1 | 0.0354
B2 | 0.0332
B3 | 0.133
B4 | 0.119
B5 | 0.0754
B6 | 0.0386
B7 | 0.0833

What follows are binders tested against T1, human prostate specific membrane … (assay: FMAT cell binding, huPSMA CHO 1A10 cells, after 4 days in human serum at 37 C).

Binder | EC50 [nM]
B4 | 0.227
B5 | 0.242

The binders below were run against T1, human prostate specific membrane … (assay: FMAT direct cell binding, human PSMA-CHO cells).

Binder | EC50 [nM]
B15 | 0.196
B16 | 0.225
B17 | 0.219
B18 | 0.294
B19 | 0.278
